The source of these data is article PMC4546420.

By stoichiometry N is commonly meant the number of molecules, sites or subunits per partner or assembly.

This assay concerns the target MBP-linker-MPR-TM (HIV-1) (UniProt P04578). Nature of the assay: SEC; Superdex-200 HR 10/300, 20 mM NaCl, 20 mM Tris-HCl pH 7.5, 0.015% beta-DDM; calibrated with protein standards; protein in beta-DDM micelles. A general note: Size exclusion chromatography separates by hydrodynamic size, large species first.

In turn, “MBP-linker-MPR-TM (from UniProt P04578 649-705) (domain or fragment)” gave a stoichiometry N above 6.
